Molecular target: Biotin carboxylase AccC (E. coli) (UniProt P24182)
Test: SEC

Question: With “Biotin-carboxy carrier protein AccB (from UniProt P0ABD8 1-156) (natural protein)” as the substance, how does the stoichiometry N read?
Answer: Its stoichiometry N is 1.
